In PMC3201873:

What was measured:
[1] = molecular target: full-length GyrB from M. tuberculosis (M. tuberculosis); experiment: far-Western, overlay or dot blot
[2] = molecular target: GyrA–SBP (GyrA fused to a Streptavidin-Binding Peptide) (M. tuberculosis) (UniProt P9WG47); experiment: SPR

full-length GyrB from M. tuberculosis (M. tuberculosis), sequence (A5TY73 whole entry, the tested form may be a part): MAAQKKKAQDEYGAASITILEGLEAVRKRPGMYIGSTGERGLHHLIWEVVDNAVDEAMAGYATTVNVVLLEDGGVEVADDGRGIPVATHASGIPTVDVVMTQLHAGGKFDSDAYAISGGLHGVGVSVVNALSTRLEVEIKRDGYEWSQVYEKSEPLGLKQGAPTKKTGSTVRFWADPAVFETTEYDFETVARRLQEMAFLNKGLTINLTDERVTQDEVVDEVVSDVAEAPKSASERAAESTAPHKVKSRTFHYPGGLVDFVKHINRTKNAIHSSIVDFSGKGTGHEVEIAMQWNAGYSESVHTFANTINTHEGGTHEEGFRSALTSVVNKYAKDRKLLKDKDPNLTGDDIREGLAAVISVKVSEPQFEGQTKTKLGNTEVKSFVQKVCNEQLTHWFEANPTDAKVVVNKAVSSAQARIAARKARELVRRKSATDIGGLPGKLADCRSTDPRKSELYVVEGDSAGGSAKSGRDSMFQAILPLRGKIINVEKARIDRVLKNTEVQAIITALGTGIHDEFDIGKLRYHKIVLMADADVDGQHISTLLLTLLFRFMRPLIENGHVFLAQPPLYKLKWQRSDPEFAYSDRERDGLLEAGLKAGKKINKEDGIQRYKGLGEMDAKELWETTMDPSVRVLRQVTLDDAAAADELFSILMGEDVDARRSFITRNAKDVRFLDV

Substance | fold stronger with negatively supercoiled pBR322 than without DNA [1] | Ka [2] | koff [2]
GyrA–SBP (GyrA fused to a Streptavidin-Binding Peptide) (from UniProt P9WG47 1-838) (natural protein) | 9 fold |  | 
full-length GyrB from M. tuberculosis (natural protein) |  | 6.2e+07 M⁻¹ | 0.00101 s⁻¹
